Data taken from PMC7413259.

Assays:
Conditions in all cases: 5' triphosphate, B1: 50 mM Tris-HCl pH 8.0, 150 mM NaCl, 1 mM MgCl2, 2 mM beta-mercaptoethanol, 10% glycerol, 20 C, B2: same with 100 mM NaCl
[1] = target: T1, ZIKV NS5 MTase domain WT (Zika virus) (UniProt A0A142I5B9); test: fluorescence titration
[2] = target: T1, ZIKV NS5 MTase domain WT (Zika virus); test: fluorescence titration; remark: listed apart in the source
ZIKV NS5 WT (Zika virus) = ZIKV NS5 WT (Zika virus) (UniProt A0A024B7W1); test: fluorescence titration
[3] = test system: ZIKV NS5 RdRp domain (Zika virus); test: fluorescence titration
[4] = target: T1, ZIKV NS5 MTase domain WT (Zika virus); test: fluorescence anisotropy

## ZIKV SLA (SLA-F)
[1]
  Kd: 400 nM
[2]
  Kd: 590 nM
ZIKV NS5 WT (Zika virus)
  Kd: 280 nM
[3]
  Kd: 530 nM
[4]
  Kd: 310 nM
